Data set [1] concerns the target recombinant full-length BmExd1 (Bombyx mori). Description: AUC.
In a further data set the target is T1, BmExd1 full-length (UniProt H9IUR0 1-315).
T1 sequence: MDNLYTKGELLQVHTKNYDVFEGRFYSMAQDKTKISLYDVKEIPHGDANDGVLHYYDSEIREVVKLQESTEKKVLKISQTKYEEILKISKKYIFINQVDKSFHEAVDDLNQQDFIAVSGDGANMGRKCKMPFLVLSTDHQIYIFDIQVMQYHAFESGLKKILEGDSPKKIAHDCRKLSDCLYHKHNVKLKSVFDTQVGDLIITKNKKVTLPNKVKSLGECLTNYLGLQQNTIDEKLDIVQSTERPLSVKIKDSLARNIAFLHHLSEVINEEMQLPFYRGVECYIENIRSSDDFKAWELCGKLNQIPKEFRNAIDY
Description: ITC.

On to “recombinant full-length BmExd1 (natural protein)”, for which the stoichiometry N in data set [1] turned out to be 2.

B1: ITC RNA (21 nt) (ssRNA)
RNA: GGGGUAUUCUUUAAUUAUUUC
Turning to B1, in the data set with BmExd1 full-length, the Kd stood at 27 µM. That is a double-digit micromolar value.

In general, stoichiometry N refers to the number of molecules, sites or subunits per partner or assembly. For orientation: Kd means the equilibrium constant for the complex coming apart. High values mean lower affinity, low ones higher affinity.
